Data on two compounds can be found in article PMC4844016 (ACS chemical neuroscience, 2015).

Data set [1] deals with SH-SY5Y neuroblastoma cells. Briefly: Apoptosis assay, Annexin V-FITC staining. Type of data set: cell-based. To be noted: SHSY-5Y cells, 1 μM, data not shown.
The nature of data set [2]: Quasielastic light scattering spectroscopy. Type of data set: physicochemical. To be noted: QLS.
Data set [3] is described as follows: Bis-ANS fluorescence, exposure of hydrophobic surfaces. Type of data set: physicochemical. The following applies: 20 µM peptide incubated at 37°C, shaking.
The next data set in a line: Thioflavin T. Type of data set: physicochemical. The following applies: 20 µM peptide, 40 µM ThT, pH 7.5, 37°C, shaking.
Data set [4] can be described thus: Thermodynamics of fibril formation. Type of data set: physicochemical. To be noted: ΔG^0 = −RT ln (1/Cr); 20 μM, 37°C, 21 days without shaking; four independent experiments.
Data set [5] in a line: Electron microscopy of assembly morphology. The class given is physicochemical. To be noted: EM.
The nature of data set [6]: Ion mobility-mass spectrometry, oligomer distributions. The class given is physicochemical. The following applies: IM-MS, 10 μM peptide in 10 mM ammonium acetate, pH 7.4.
The subject of data set [7] is differentiated PC12 cells. Briefly: MTT assay. Type of data set: cell-based. To be noted: NGF-differentiated PC12 cells, 10 µM freshly prepared peptide, 24 h, 37°C; normalized to media control; three independent experiments, 6 wells. For orientation: Formazan colour is commonly taken as a measure of viable cells.
A short description of data set [8]: Oligomerization by PICUP and SDS-PAGE. Type of data set: physicochemical. The following applies: 25–35 μM peptide, cross-linked, SDS-PAGE, silver staining.

For `CN[C@@H]1C[C@H]2O[C@@](C)([C@@H]1OC)n1c3ccccc3c3c4c(c5c6ccccc6n2c5c31)C(=O)NC4` [staurosporine], in [1], the “effect of positive control on cells” value is reported as “complete disruption of membrane integrity”.

Turning to Amyloid β−protein (1–42) [Aβ42], the “RH of small particles, initial distribution” value in [2] (0.5 h of incubation) is listed as 8–10 nm. Besides, in data set [2] (0.5 h of incubation, relatively few particles), the “RH of larger particles also observed, initial distribution” value is reported as 100–1000 nm. For the same compound, in [2] (24 h of incubation), the “RH of oligomers remaining after 24 h” value is on record as 8–10 nm and the “maximal RH after 24 h” value is given as more than 1000 nm. For the same compound, the “time of peak Bis-ANS fluorescence” value in data set [3] is listed as 4 h. For the same compound, in “Thioflavin T”, the “time ThT fluorescence remained constant (lag)” value is on record as “≈ 1 h”. Also, the “ΔG^0 of fibril formation” value in [4] is given as −8.45 (0.12) kcal/mole. Further, the “globules, size range, Day 0” value in [5] (37°C with shaking, day 0, Image J) is reported as 11–23 nm. For the same compound, the “long fibrils, size range, Day 7” value in data set [5] (37°C with shaking, day 7) is 9–21 nm. In addition, the “short fibrils, assembly length, Day 7” value in data set [5] (37°C with shaking, day 7, value in parentheses) is on record as 56–303 nm. Besides, in [5] (day 0), the “annuli, inside diameter, Day 0” value is listed as 4–11 nm and the “annuli, outside diameter, Day 0” value is given as 13–25 nm. For the same compound, in [6], the “oligomers assigned in ATD of z/n = −5/2 peak” value was “dimer, tetramer, hexamer, and dodecamer”. Moreover, the “decrease in MTT metabolism” value in data set [7] was “≈ 23%”. Also, the “oligomer size distribution by PICUP” value in [8] is “prominent node of band intensity at pentamer-hexamer”.
